In patent US20230357414A1 (SYNTHEKINE, published 2023):

B1: mIL12Rb2 VHH5 (VHH)
VHH: QVQLQESGGGSVQAGGSLRLSCAASGITYRGVWMGWFRQAPGKEREGVATIYTGSGHTYYADSVKGRFTISQDNAKNTVYLQMNSLKPEDTAMYYCAARTVGGTFYTLAADSFNTWGQGTQVTVSS
notes: Camel VHH, tested as a periplasmic extract of a phage clone; also called anti-mouse IL12Rb2 VHH5; not shown: HA/His tag encoded by the pMECS phagemid
B2: mIL12Rb2 VHH2 (VHH)
VHH: QVQLQESGGGSVQAGGSLRLSCAASGVTYGSYYMAAWFRQAPGKEREGVASIYGGSDSTYYADSVLGRFTISQDNGKNTLYLQMNSLKPDDTAMYYCAAAPPGKWFLKRLEGHNYSYWGQGTQVTVSS
notes: Camel VHH, tested as a periplasmic extract of a phage clone; also called anti-mouse IL12Rb2 VHH2; not shown: HA/His tag encoded by the pMECS phagemid
B3: mIL12Rb2 VHH1 (VHH)
VHH: QVQLQESGGGSVQAGGSLRLSCAASGYTYSNRHMGWFRQAPGKEREGVAAIYTGGGSTYYADSVKDRFTISQDNAKNTLYLQMNSLTPEDTAMYYCAADLTRWYSGGWRDPRGYKYWGQGTQVTVS
notes: Camel VHH, tested as a periplasmic extract of a phage clone; also called anti-mouse IL12Rb2 VHH1; not shown: HA/His tag encoded by the pMECS phagemid
B4: mIL12Rb2 VHH6 (VHH)
VHH: QVQLQESGGGSVQAGGSLRLSCAVSGKAYGGAWFRQAQGKGREGVAAIWIGTGTTFYADSVKGRFTISRDNAKNTVYLQMDGLKPEDTAVYYCAADDRPGYRDPLAPVSYNHWGQGTQVTVSS
notes: Camel VHH, tested as a periplasmic extract of a phage clone; also called anti-mouse IL12Rb2 VHH6; not shown: HA/His tag encoded by the pMECS phagemid
B5: mIL12Rb2 VHH7 (VHH)
VHH: QVQLQESGGGSVQAGGSLKLSCAVSGNPYGGAWFRQAQGKSREGVAAIWLGTGTTFYADSVKGRFTISRDNAKNTVYVQIDGLKPEDTAMYYCAADDRPGYRDPLAPVSYNHWGQGTQVTVSS
notes: Camel VHH, tested as a periplasmic extract of a phage clone; also called anti-mouse IL12Rb2 VHH7; not shown: HA/His tag encoded by the pMECS phagemid
B6: mIL12Rb2 VHH8 (VHH)
VHH: QVQLQESGGGSVQAGGSLRLSCVVSGKAYGGAWFRQAQGKSREGVAAIWIGTGTTFYADSVKGRFTISRDNAKNTVYLQMDGLKPEDTAMYYCAADDRPGYRDPLAPVSYNHWGQGTQVTVSS
notes: Camel VHH, tested as a periplasmic extract of a phage clone; also called anti-mouse IL12Rb2 VHH8; not shown: HA/His tag encoded by the pMECS phagemid
B7: mIL12Rb2 VHH4 (VHH)
VHH: QVQLQESGGGSVQVGGSLRLSCAVSGKLYGGAWFRQAQGKGREGVAAIWIGTGTTFYADSVKGRFTISRDNAKNTVYLQMDGLKPEDTALYYCAADDRPGYRDPLAPVSYNHWGQGTQVTVSS
notes: Camel VHH, tested as a periplasmic extract of a phage clone; also called anti-mouse IL12Rb2 VHH4; not shown: HA/His tag encoded by the pMECS phagemid
B8: mIL12Rb2 VHH9 (VHH)
VHH: QVQLQESGGGSVQAGGSLTLSCVVSGKAFGGAWFRQAQGKGREGVAAIWIGTGTTFYADSVKGRFTISRDNAKNTVYLQMDGLKPDDTAMYYCAADDRPGYRDPLAPVSYNHWGQGTQVTVSS
notes: Camel VHH, tested as a periplasmic extract of a phage clone; also called anti-mouse IL12Rb2 VHH9; not shown: HA/His tag encoded by the pMECS phagemid
B9: VHH2 (VHH)
VHH: QVQLQESGGGSVQAGGSLRLSCAASGFTISRYCMGWLRQAPGKQREGVAIIERDGRTGYADSVKGRFTISKDNAKNTLYLQMNSLKPEDTAMYYCGAIEGSCRPDFGYRGQGTQVTVSS
notes: Camel VHH, tested as a periplasmic extract of a phage clone; also called anti-human IL12Rb2 VHH2; hIL12Rb2 VHH; not shown: HA/His tag encoded by the pMECS phagemid
B10: VHH1 (VHH)
VHH: QVQLQESGGGSVQAGGSLRLSCAASGFTVTRYCMGWLRQAPGKQREGVAIIERDGRTGYADSVKGRFTISKDNAKNTLYLQMNSLKPEDTAMYYCGAIEGSCRPDFGYRGQGTQVTVSS
notes: Camel VHH, tested as a periplasmic extract of a phage clone; also called anti-human IL12Rb2 VHH1; hIL12Rb2 VHH; not shown: HA/His tag encoded by the pMECS phagemid
B11: VHH10 (VHH)
VHH: QVQLQESGGGSVQAGGSLRLSCAASGFTVTRYCMGWLRQAPGKQREGVAIIERDGRTGYADSVKGRFTISKDNAKNTLYLQMNSLKPEDTAMYYCGAIEGSCRPDFGYRGQGTQVTVSS
notes: Camel VHH, tested as a periplasmic extract of a phage clone; also called anti-human IL12Rb2 VHH10; hIL12Rb2 VHH; not shown: HA/His tag encoded by the pMECS phagemid
B12: VHH8 (VHH)
VHH: QVQLQESGGGSVQAGGSLRLSCAASGFTVSRYCMGWLRQAPGKQREGVAIIEREGRTGYADSVKGRFTISKDNAKNTLYLQMNSLKPEDTAMYYCGAIEGSCRPDFGYRGQGTQVTVSS
notes: Camel VHH, tested as a periplasmic extract of a phage clone; also called anti-human IL12Rb2 VHH8; hIL12Rb2 VHH; not shown: HA/His tag encoded by the pMECS phagemid

target: T1, extracellular domain of mouse IL12Rb2 (614 amino acids, amino acids 24-637 of the mIL12Rb2 precursor, UniProt … (mouse, UniProt P97378 24-637)); assay: periplasmic extract ELISA on antigen-coated plate; positive if A450 at least threefold over PBS-coated control
T1 construct: also called mIL12Rb2 ECD; mIL12Rb2 ECD antigen
T1 sequence: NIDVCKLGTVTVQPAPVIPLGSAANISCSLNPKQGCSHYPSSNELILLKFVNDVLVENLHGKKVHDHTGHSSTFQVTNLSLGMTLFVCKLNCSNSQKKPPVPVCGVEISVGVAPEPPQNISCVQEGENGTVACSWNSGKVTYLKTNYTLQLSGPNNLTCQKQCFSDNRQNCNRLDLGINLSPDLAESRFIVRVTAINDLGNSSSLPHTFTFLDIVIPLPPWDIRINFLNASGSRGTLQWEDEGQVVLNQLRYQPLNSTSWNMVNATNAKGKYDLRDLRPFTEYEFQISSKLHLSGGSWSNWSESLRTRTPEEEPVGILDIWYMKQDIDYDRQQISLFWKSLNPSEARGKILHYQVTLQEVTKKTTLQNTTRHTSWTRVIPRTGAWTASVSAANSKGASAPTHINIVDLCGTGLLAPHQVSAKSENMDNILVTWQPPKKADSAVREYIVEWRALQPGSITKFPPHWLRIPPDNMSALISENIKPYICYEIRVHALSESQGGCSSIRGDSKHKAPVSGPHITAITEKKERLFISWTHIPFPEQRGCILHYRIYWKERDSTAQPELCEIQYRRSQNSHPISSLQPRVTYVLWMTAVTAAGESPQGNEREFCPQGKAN
Procedure: (§1) Upon completion of the biopanning of Example 3, three 96-well plates of individual phage clones were isolated in order to perform periplasmic extract ELISA (PE-ELISA) on IL12Rb2 coated plates to identify positive VHH binders that selectively bound IL12Rb2. A 96-well plate was coated with IL12Rb2 and PBS under the same conditions. Next, wells were blocked at 37° C. for 1 h. Then, 100 μl of extracted antibodies was added to each well and incubated for 1 h. Subsequently, 100 μl of anti-tag polyclonal antibody conjugated to HRP was added to each well and incubated at 37° C. for 1 h. Plates were developed with TMB substrate. The reaction was stopped by the addition of H2SO4. Absorbance at 450 nm was read on a microtiter plate reader. Antibodies with absorbance of the antigen-coated well at least threefold greater than PBS-coated control are VHHs that specifically bind to IL 12Rb2. Positive clones were sequenced, and sequences analyzed to identify unique clonotypes

Row | Binder | binding result
1 | B1 | binds
2 | B2 | binds
3 | B3 | binds
4 | B4 | binds
5 | B5 | binds
6 | B6 | binds
7 | B7 | binds
8 | B8 | binds

target: T2, extracellular domain of human IL12Rb2 (amino acids 24-622 of hIL12Rb2, UniProt Q99665) (human, UniProt Q99665 24-622); assay: as above
T2 construct: also called hIL12Rb2 ECD; hIL12Rb2-ECD
T2 sequence: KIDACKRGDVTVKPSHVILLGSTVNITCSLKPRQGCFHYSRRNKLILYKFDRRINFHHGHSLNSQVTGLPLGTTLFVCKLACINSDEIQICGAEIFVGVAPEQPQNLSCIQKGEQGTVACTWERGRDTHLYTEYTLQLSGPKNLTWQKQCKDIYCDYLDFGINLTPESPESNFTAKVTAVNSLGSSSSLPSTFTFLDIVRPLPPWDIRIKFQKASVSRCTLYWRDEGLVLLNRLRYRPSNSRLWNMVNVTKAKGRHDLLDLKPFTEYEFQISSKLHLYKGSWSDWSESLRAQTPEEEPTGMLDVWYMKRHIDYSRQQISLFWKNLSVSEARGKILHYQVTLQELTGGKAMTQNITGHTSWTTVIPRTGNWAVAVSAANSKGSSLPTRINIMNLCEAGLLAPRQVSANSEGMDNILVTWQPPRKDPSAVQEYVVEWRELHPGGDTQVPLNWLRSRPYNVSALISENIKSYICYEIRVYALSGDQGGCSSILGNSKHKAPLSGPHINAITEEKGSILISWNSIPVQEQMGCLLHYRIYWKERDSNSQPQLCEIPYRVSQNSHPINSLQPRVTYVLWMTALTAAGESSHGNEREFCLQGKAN
Procedure: as §1

Row | Binder | binding result
9 | B9 | binds
10 | B10 | binds
11 | B11 | binds
12 | B12 | binds
